Test results taken from patent US20210388110A1 (published 2021).
Where a chain is given by its changes, count along the chain named.

B1: TR01H040-E22Hh/none-Hi-Kn010G3/L0235-k0 (antibody, human IgG1, kappa, L234A L235A, N297A)
heavy: QVQLVESGGGLVQPGRSLRLSCAASGFTFSNAWMHWVRQAPGKGLEWVAQIKDKSQNYATYYAESVKGRFTISRADSKNSIYLQMNSLKTEDTAVYYCRYVHYSASYGVDAWGQGTTVTVSSASTKGPSVFPLAPSSKSTSGGTAALGCLVKDYFPEPVTVSWNSGALTSGVHTFPAVLQSSGLYSLSSVVTVPSSSLGTQTYICNVNHKPSNTKVDKKVEPKSCDKTHTCPPCPAPEAAGGPSVFLFPPKPKDTLMISRTPEVTCVVVDVSHEDPEVKFNWYVDGVEVHNAKTKPREEQYASTYRVVSVLTVLHQDWLNGKEYKCKVSNKALPAPIEKTISKAKGQPREPQVYTLPPSRCELTKNQVSLSCAVKGFYPSDIAVEWESNGQPENNYKTTPPVLDSDGSFFLVSKLTVDKSRWQQGNVFSCSVMHEALHNHYTQKSLSLSPDYKDDDDK
chain: EPKSSDKTHTCPPCPAPELLGGPSVFLFPPKPKDTLMISRTPEVTCVVVDVSHEDPEVKFNWYVDGVEVHNAKTKPREEQYNSTYRVVSVLTVLHQDWLNGKEYKCKVSNKALPAPIEKTISKAKGQPREPQVCTLPPSRDELTKNQVSLWCLVKGFYPSDIAVEWESNGQPENNYKTTPPVLDSDGSFFLYSKLTVDKSRWQQGNVFSCSVMHEALHNRYTQKSLSLSP
light: DIVMTQSPLSLPVTPGEPASISCRSSQEPVHSNRNTYLHWYQQKPGQAPRLLIYKVSNRFSGVPDRFSGSGSGTDFTLKISRVEAEDVGVYYCYQGTQVPYTFGQGTKLEIKRTVAAPSVFIFPPSDEQLKSGTASVVCLLNNFYPREAKVQWKVDNALQSGNSQESVTEQDSKDSTYSLSSTLTLSKADYEKHKVYACEVTHQGLSSPVTKSFNRGEC
notes: single-arm
B2: TR01H040-E22Hh/none-Hi-Kn010G3/L0240-k0 (antibody, human IgG1, kappa, L234A L235A, N297A)
heavy: B1 heavy
chain: B1 chain
light: B1 light with Q27E, E28S
notes: single-arm
B3: TR01H040-E22Hh/none-Hi-Kn010G3/L0236-k0 (antibody, human IgG1, kappa, L234A L235A, N297A)
heavy: B1 heavy
chain: B1 chain
light: B1 light with S61W
notes: single-arm
B4: TR01H040-E22Hh/none-Hi-Kn010G3/L0243-k0 (antibody, human IgG1, kappa, L234A L235A, N297A)
heavy: B1 heavy
chain: B1 chain
light: B1 light with Q27E, E28P, S61R, Y94G
notes: single-arm
B5: TR01H040-E22Hh/none-Hi-Kn010G3/L0262-k0 (antibody, human IgG1, kappa, L234A L235A, N297A)
heavy: B1 heavy
chain: B1 chain
light: B1 light with E28P, Y94A
notes: single-arm
B6: TR01H040-E22Hh/none-Hi-Kn010G3/L0238-k0 (antibody, human IgG1, kappa, L234A L235A, N297A)
heavy: B1 heavy
chain: B1 chain
light: B1 light with Q27E, E28P
notes: single-arm
B7: TR01H040-E22Hh/none-Hi-Kn010G3/L0250-k0 (antibody, human IgG1, kappa, L234A L235A, N297A)
heavy: B1 heavy
chain: B1 chain
light: B1 light with S25P, E28S, L38I, H39Q, Y94I
notes: single-arm
B8: TR01H040-E22Hh/none-Hi-Kn010G3/L0241-k0 (antibody, human IgG1, kappa, L234A L235A, N297A)
heavy: B1 heavy
chain: B1 chain
light: B1 light with Q27E, E28S, S61W
notes: single-arm
B9: TR01H040-E22Hh/none-Hi-Kn010G3/L0237-k0 (antibody, human IgG1, kappa, L234A L235A, N297A)
heavy: B1 heavy
chain: B1 chain
light: B1 light with L38I
notes: single-arm
B10: TR01H040-E22Hh/none-Hi-Kn010G3/L0239-k0 (antibody, human IgG1, kappa, L234A L235A, N297A)
heavy: B1 heavy
chain: B1 chain
light: B1 light with Q27E, E28S, S61R, Y94G
notes: single-arm
B11: TR01H040-E22Hh/none-Hi-Kn010G3/L0242-k0 (antibody, human IgG1, kappa, L234A L235A, N297A)
heavy: B1 heavy
chain: B1 chain
light: B1 light with Q27E, E28S, L38I
notes: single-arm

Target: T1, soluble human CD3ε chain (human, UniProt P07766 23-126, limits assumed)
T1 construct: the text says soluble human CD3ε chain; also called human CD3 epsilon chain
Assay: SPR (Biacore)

T1 sequence (P07766 23-126 limits assumed): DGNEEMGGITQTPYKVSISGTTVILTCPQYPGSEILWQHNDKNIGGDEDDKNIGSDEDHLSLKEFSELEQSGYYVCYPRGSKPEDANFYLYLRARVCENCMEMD

| Kd [nM] | Binder |
| --- | --- |
| 2.81 | B1 |
| 2.17 | B2 |
| 5.64 | B3 |
| 24.6 | B4 |
| 18.1 | B5 |
| 2.91 | B6 |
| 21.5 | B7 |
| 3.48 | B8 |
| 10.2 | B9 |
| 23.1 | B10 |
| 3.58 | B11 |
